Tests used:
[1] = Biotransformation of tetradecanoic acid using CFE of E. coli, Tris-HCl buffer; format: biochemical; conditions: 5 mmol/L substrate, CFE of E. coli, Tris-HCl, 24 h
Protocol: (§1) Expression of genes in E. coli was performed by using ZYP-5052 auto-induction medium (Table 1) with in the case of the CYP 1 mM 5-aminolevulinic acid and 0.05 mM FeCl3 added. The CYP505E3 culture was cultivated using baffled flasks and incubated at 20° C. and 180 rpm for 24 h, while the GDH, and HLADH expressing cultures were all cultivated at 25° C. and 200 rpm for 24 h. Cultures were harvested through centrifugation (6 000×g, 10 min) and 1 g (wet weight) resuspended in 2 ml, 5 ml or 10 ml Tris-HCl, Phosphate or MOPS buffer, as indicated, (pH 8, 200 mM) containing 100 mM of glucose and glycerol. CFEs were obtained by a single passage of the suspended cells through a One Shot Cell Disrupter (Constant Systems) at 207 MPa. The soluble fraction was separated from unbroken cells by centrifugation (20 000×g, 20 min).
(§2) The biotransformation reaction mixture (BRM) consisted of CYP and GDH CFE suspensions prepared from cells in Tris-HCl buffers (1 g wet weight in 2 ml buffer) mixed in a 1:1 ratio with 0.1 mM NADPH added. Dodecanoic acid, tetradecanoic acid, hexadecanoic acid, 1-tetradecanol and 1-hexadecanol (20 μl of a 255 mM stock solution in DMSO) were added to 40 ml amber glass vials containing 1 ml BRM to give final substrate concentrations of 5 mmol·LBRM^−1. These vials were placed on an orbital shaker at 20° C., 200 rpm, oscillation amplitude 26 mm. Vials were removed after 24 h for extraction. Biotransformations were stopped by adding 170 ul of 0.5M HCl, extracted with 2×500 μl EtOAc and subjected to GC-MS analysis. A sample of δ-dodecalactone in ethyl acetate (0.1 mM) was also methylated with TMSH and subjected to GC-MS analysis.

[2] = Biotransformation of dodecanoic acid using CFE of E. coli, Tris-HCl buffer; format: biochemical; conditions: 5 mmol/L substrate, CFE of E. coli, Tris-HCl, 24 h
Protocol: as §1, §2

[3] = format: cell-based, P. pastoris
Protocol: (§3) Precultures of P. pastoris transformants were prepared in buffered complex glycerol media (BMGY). BMGY contained: 10 g/l yeast extract, 20 g/l peptone, 3.4 g/l yeast nitrogen base, 10 g/l ammonium sulfate, 100 mM potassium phosphate (pH 6), 0.4 mg/l biotin and 1% (v/v) glycerol. Erlenmeyer flasks (500 ml) containing 50 ml BMGY media were inoculated with single colonies of 24 h old YPD-agar cultures of P. pastoris KM71 mut^s3/CYP505E3 and incubated at 30° C. and 225 rpm for 24 h. The cultures were harvested using pre-weighed centrifuge tubes at 3000 g for 5 min and stored on ice until further use.
(§4) The main cultures for expression were prepared in buffered complex methanol media (BMMY) containing 10 g/l yeast extract, 20 g/l peptone, 3.4 g/l yeast nitrogen base, 10 g/l ammonium sulfate, 100 mM potassium phosphate (pH 6), 0.4 mg/l biotin and 0.5 or 1% (v/v) methanol. Harvested cells from precultures were resuspended in BMMY media to final concentration of 1 g WC per 40 ml (appx. 25 g/l). The resuspended cultures (100 ml) were transferred to 500 ml Erlenmeyer flasks and incubated at 25° C. and 225 rpm for 24 h. The cultures were then harvested at 3000 g for 5 min using pre-weighed centrifuge tubes.
(§5) Different transformants of Pichia pastoris KM71 harbouring the CYP505 genes for SEQ ID Nos 1 to 7 and 9 to 12 were grown and harvested as described above. The harvested cells were resuspended to give 1 g wet cell weight in 40 ml MOPS buffer (200 mM, 100 mM glucose, 100 mM glycerol, pH 8) and 1 ml aliquots of these cell suspensions were transferred to 40 ml amber vials. Dodecane, 1-dodecanol and 1-tetradecanol were added neat to these cell suspensions to give final concentrations of 200 mM in the case of the alcohols and 1 M in the case of dodecane while in the case of dodecanoic acid 20 μl of a 500 mM stock solution (in DMSO) was added to give a final concentration of 10 mM. Transformants harbouring the CYP505 genes for SEQ ID Nos 1 to 4 were tested for the biotransformation of 1-dodecanol, 1-tetradecanol, dodecanoic acid, tetradecanoic acid and dodecane, while those harbouring the CYP505 genes for SEQ ID Nos 5 to 7 and 9 to 12 were only tested for the biotransformation of 1-dodecanol and dodecanoic acid. The biotransformations were incubated at 25° C. and 225 rpm for 24 h. Extractions were performed using ethyl acetate (500 μl×2). The extracts were analyzed using GC/MS.

[4] = Biotransformation of C12 fatty acid using CFE of E. coli expressing CYP505E3 in different buffers; format: biochemical
Protocol: as §1
The biotransformation reaction mixture (BRM) consisted of CYP and GDH CFE suspensions prepared from cells in Tris-HCl, phosphate and MOPS buffers (1 g wet weight in 5 ml buffer) mixed in a 1:1 ratio with 0.1 mM NADPH added. The final CYP concentrations were 1.1, 1.3 and 1.5 μM in respectively the Tris-HCl, phosphate and MOPS buffers. Dodecanoic acid (20 μl of 255 or 510 mM fatty acid stock solution in DMSO) was added to 40 ml amber glass vials containing 1 ml BRM to give final substrate concentrations of 5 and 10 mmol·LBRM^−1. […]

[5] = Biotransformation of hexadecane using CFE of E. coli expressing CYP505E3; format: biochemical
Protocol: as §1
(§6) Biotransformations of dodecane, tetradecane and hexadecane were carried using only CYP505E3 containing CFE prepared from an E. coli cell suspension (1 g wet weight in 10 ml buffer) in MOPS buffer (200 mM, pH 8) containing glucose and glycerol (100 mM each) as well as 0.1 mM NADPH. Alkane substrates (250 μL) were added to 1 mL BRM in 40 ml amber glass vials. These vials were placed on an orbital shaker at 20° C., 200 rpm, oscillation amplitude 26 mm and incubated for 24 h.

[6] = whole cell biotransformations, E. coli; cited from earlier work
[7] = Biotransformation of 1-hexadecanol using CFE of E. coli, Tris-HCl buffer; format: biochemical; conditions: 5 mmol/L substrate, 24 h
Protocol: as §1
as §2, with “Vials were removed after 24 h for extraction. Biotransformations were stopped by adding 170 ul of 0.5M HCl, extracted with 2×500 μl EtOAc and subjected to GC-MS analysis. A sample of δ-dodecalactone in ethyl acetate (0.1 mM) was also methylated with TMSH and subjected to GC-MS analysis.” left out

[8] = format: biochemical, E. coli
Protocol: as §1, §6

[9] = Whole cell biotransformation of dodecane by CYP505s expressed in P. pastoris; format: cell-based; conditions: whole cells of P. pastoris
Protocol: as §3, §4, §5

B1: CYP505E3: self-sufficient cytochrome P450 monooxygenase from Aspergillus terreus, SEQ ID No 1 (protein, listed as Aspergillus terreus)
chain: MIKETEQIPGPRPLPVVGNLFDMDLEHGLECLIRLADDFGPLFQITINGEKQIFATSQALVDELCDESRFHKAVMGGLEKLRMLASDGLFTAYHGERGWGIAHRILVPAFGPLRIRNMFEEMNDVAQQLCLKWARQGSSTSINITDDFTRLTLDTIALCTMNFRLNSFYNNETMHPFVKSMLYVLRESDIQSMLPGIANCIRVKARSRMSKHIQLMRNMARGIIQERRDQAEPVDDLLNTLLNGRDPVTGEGMSDDLIINNVITFLIAGHETTSGLLSFTFYYLLQNPHILERAQNEVDEVTGGERITVQHLGRLTYIDAILKESLRLMPTAPAFTVTPKKPEVLGGAWAIDAGQAVNVLLPVCLRDRSVFGPDADEFRPERMLEENFSKLPPNSWKPFGNGERSCIGRAFAWQEAQLVVAMVLQTFDLVPDDPSYKLRIKETLTIKPDGFRVRATLRRGQSATGLSQGSMSASGATSSVASPGPPAATGAQSNPAGGQRISFFYGSNSGTCKALAHRLASSLMGRGFTEQKLAALDTVVGNLPTDQPVIIVTTSYDGRPTDDAEEFVRWLESKRPVLQGVSYAVFGCGHHDWAKTFYRIPILIDDLMHKAGATRLTALGTANAAVSDLFSDLELWEETNLLPALREAFPPSNSSDVESSEPHQLQICVSKPRRVDMHRGLVEAKVTAVRTLTSPDSPEKRHVEFHVQGDTTWRPGDHVNILPVNPLSTVSRVLAYFQLAPDHSITVNSFNTQGLPSATPVSATELFSSFVELSQPATRKNLKALAMAAESKTDEQELIRLHDSYDALVRDKRVSVLDILERFPSISLPIGIFISMLPPLRLRTYSLSMAPSFKPSHGSLTFSVINEPAWSGNGQYLGVGSNYLASLTPGSLLYLSPRPAKDAFHLPADQFNTPIIMICAGSGLAPFMGFIQERMTWLKQGRPLAKGLLFFGCRGPHLDDLYYEELSEFEDAGVVEVHRAYSRAPDDVRAKGCRHVQHRLVTEAEAVRDHWGRNAIVYVCGSSNMARGVQTVLEEILGTLPPERYVAEIF
products identified from tetradecanoic acid (GC-MS, methylated samples) [1]: 7-hydroxy tetradecanoic acid
products identified from dodecanoic acid (GC-MS, methylated samples) [2]: δ-dodecalactone and the methyl ester of 5-hydroxy dodecanoic acid
products produced from tetradecanoic acid (GC-MS) [3]: only 7-hydroxy tetradecanoic acid
conversion of substrate ([4]; 5 mM dodecanoic acid, within 24 h, all buffers): almost completely converted
δ-dodecalactone and 5-OH 12FAME as share of the total products ([4]; dodecanoic acid, CFE, Tris-HCl, phosphate or MOPS buffer pH 8): 30-35%
ω-7 hydroxylase activity C16alk ([5]; C16 alkane, GC-MS peak height): + (+ − 0.01 million < RA < 0.1 million)
product from hexadecane (GC-MS) ([5]; MOPS buffer, 24 h): 8-hexadecanol
activity towards alkanes and alkylbenzens [6]: no detectable activity
products detected from hexadecanol (GC-MS) [7]: did not allow detection of any products
product from dodecane (GC-MS) [8]: 5-dodecanol
product from tetradecane (GC-MS) [8]: 7-tetradecanol
products produced from dodecane (GC-MS) ([9]; 1 M dodecane, 24 h): 5-dodecanol
ω-7 hydroxylase activity C12alk ([9]; C12 alkane, GC-MS peak height): +++ (+++ 1 million < RA < 10 million)
